According to paper PMC12319226 (Frontiers in Bioinformatics, 2025):
Substitutions are numbered along the chain they refer to.

T1: fHbp m001180 (Neisseria meningitidis fHbp v3.28-based …, point mutant)
T1 chain: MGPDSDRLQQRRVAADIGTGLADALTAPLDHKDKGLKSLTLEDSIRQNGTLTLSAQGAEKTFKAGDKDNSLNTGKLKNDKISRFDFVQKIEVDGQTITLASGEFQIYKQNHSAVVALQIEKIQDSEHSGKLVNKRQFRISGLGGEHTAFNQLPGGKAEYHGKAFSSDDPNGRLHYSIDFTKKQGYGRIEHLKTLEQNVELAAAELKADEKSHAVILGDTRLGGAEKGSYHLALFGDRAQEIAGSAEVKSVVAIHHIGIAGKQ

T2: fHbp m002414 (Neisseria meningitidis fHbp v3.28, …, chimera)
T2 chain: T1 chain with L221Y, G222N, S249T, V251E, A252S

T3: fHbp m001177 (Neisseria meningitidis fHbp v3.28-based …, point mutant)
T3 chain: T1 chain with V251N

T4: fHbp m001768 (Neisseria meningitidis, engineered fHbp …, point mutant)
T4 chain: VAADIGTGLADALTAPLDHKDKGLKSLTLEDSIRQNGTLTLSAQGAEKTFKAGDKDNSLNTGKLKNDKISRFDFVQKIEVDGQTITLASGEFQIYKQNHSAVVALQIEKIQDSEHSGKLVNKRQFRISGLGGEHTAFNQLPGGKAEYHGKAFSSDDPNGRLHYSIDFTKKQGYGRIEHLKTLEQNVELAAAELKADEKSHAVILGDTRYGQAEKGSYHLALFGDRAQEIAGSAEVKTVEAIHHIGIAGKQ

T5: fHbp m001531 (Neisseria meningitidis, fHbp …, point mutant)
T5 chain: T1 chain with G222N, G223Q, S249T

T6: fHbp m001119 (Neisseria meningitidis fHbp v3.28-based …, point mutant)
T6 chain: T1 chain with G223S, S249T, V251E, A252S

T7: fHbp m001690 (Neisseria meningitidis, engineered fHbp …, point mutant)
T7 chain: T4 chain with Y209L, G210N, Q211G, E239N

T8: fHbp mutant 0021 (Neisseria meningitidis, fHbp v3.28 …, point mutant)
T8 chain: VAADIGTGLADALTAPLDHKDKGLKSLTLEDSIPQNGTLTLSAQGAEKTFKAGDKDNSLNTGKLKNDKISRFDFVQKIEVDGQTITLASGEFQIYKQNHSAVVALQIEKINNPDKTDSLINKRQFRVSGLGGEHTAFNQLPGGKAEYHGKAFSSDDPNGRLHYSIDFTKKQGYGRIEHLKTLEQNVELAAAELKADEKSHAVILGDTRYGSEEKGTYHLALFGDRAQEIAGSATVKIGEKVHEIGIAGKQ

T9: fHbp mutant 0017 (Neisseria meningitidis, fHbp v1.1 mutant, point mutant)
T9 chain: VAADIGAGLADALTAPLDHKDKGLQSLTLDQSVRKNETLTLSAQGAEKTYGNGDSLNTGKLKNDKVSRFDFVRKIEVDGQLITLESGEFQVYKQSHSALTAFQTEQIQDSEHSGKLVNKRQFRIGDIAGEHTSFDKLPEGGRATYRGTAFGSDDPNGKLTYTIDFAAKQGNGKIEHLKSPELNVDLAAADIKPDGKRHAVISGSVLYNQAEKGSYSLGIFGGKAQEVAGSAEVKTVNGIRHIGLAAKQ

B1: mAb 1E6 (human) (antibody, V domains shown)
VH: EVQLVQSGAEVKKPGSSVKVSCKASGGTVIDYPITWVRQAPGQGLEWVGGFVPLFRTSNYGQKFQGRVTITADKSTSTASMELNSLTSEDTAIYYCARGDTAMGPFDYWGQGTLVTVSS
VL: SYVLTQPPSLSVAPGKTATLTCGGNNIAGKTVHWYQQRPGQAPVLVISYDSDRPSGIPERFSGSNSANTATLTISRVEAGDEADYYCQVWDRNSDHWVFGGGTKLTVL
notes: source: Expi293, purified (MabSelect SuRe, SEC); copies: 2 + 2
B2: mAb 4B3 (human) (antibody, V domains shown)
VH: QVQLVQSGGGLVKPGGSLRLSCAASGFPFSSYYMSWIRQAPGKGLEWVSDINNSGNVKEYADFVKGRLTISRDNVKNSMYLHMNSLRVEDTAVYYCARNRGRFDVWGQGTLVTVSA
VL: EIVMTQSPGTLSLSPGETATLSCRASQMISSPFLAWYQQRRGQAPRLLIYGASTRATDTPDRFRGSGSGTDFILTISRLEPEDFAVYYCQYYDDSPFTFGQGTKLEIK
notes: also called 4B3-2; source: Expi293, purified (MabSelect SuRe, SEC); copies: 2 + 2
B3: chimeric antibody h12C1 (antibody, V domains shown)
VH: QVQLQESGPELVKPGASVKISCKASGYSFSDYNMSWVKQSNGKSLEWIGIIDPKYGTINYNQKFKGKATLTVDQASSTAYMQLNSLTSEDSAVYYCVRDYYGSSYFDYWGQGTTLTVSS
VL: DIVLTQSPSSIYASLGERVTLTCKASQDIHNYLNWFQQKPGKSPKTLIYRANRLVDGVPSRFSGGGSGQDYSLTISSLEFEDIGIYYCLQYDEFPPTFGGGTRLEIK
notes: also called humanized 12C1; source: Expi293, purified (MabSelect SuRe, SEC); copies: 2 + 2

Legend:
Experiment in all cases: BLI
Conditions in all cases: both partners purified
fHbp m001180 = biological target: T1, fHbp m001180
fHbp m002414 = biological target: T2, fHbp m002414
fHbp m001177 = biological target: T3, fHbp m001177
fHbp m001768 = biological target: T4, fHbp m001768
fHbp m001531 = biological target: T5, fHbp m001531
fHbp m001119 = biological target: T6, fHbp m001119
fHbp m001690 = biological target: T7, fHbp m001690
fHbp mutant 0021 = biological target: T8, fHbp mutant 0021
fHbp mutant 0017 = biological target: T9, fHbp mutant 0017

Row | Binder | Kd (fHbp m001180) [nM] | koff (fHbp m001180) [s⁻¹] | kon (fHbp m001180) [M⁻¹ s⁻¹] | Kd (fHbp m002414) [nM] | koff (fHbp m002414) [s⁻¹] | kon (fHbp m002414) [M⁻¹ s⁻¹] | Kd (fHbp m001177) [nM] | koff (fHbp m001177) [s⁻¹] | kon (fHbp m001177) [M⁻¹ s⁻¹] | Kd (fHbp m001768) [nM] | koff (fHbp m001768) [s⁻¹] | kon (fHbp m001768) [M⁻¹ s⁻¹] | Kd (fHbp m001531) [nM] | koff (fHbp m001531) [s⁻¹] | kon (fHbp m001531) [M⁻¹ s⁻¹] | Kd (fHbp m001119) [nM] | koff (fHbp m001119) [s⁻¹] | kon (fHbp m001119) [M⁻¹ s⁻¹] | Kd (fHbp m001690) [nM] | koff (fHbp m001690) [s⁻¹] | also measured
1 | B1 | 0.574 | 0.000278 | 485200 ± 1980 | 1.09 | 0.000223 | 205200 ± 950 | 0.609 | 0.000279 | 457500 ± 1660 | 0.538 | 0.000175 | 325000 ± 2320 | 0.546 | 0.0002 | 367300 ± 1990 | 0.886 | 0.000349 | 393800 ± 1250 | 0.678 | 0.000298 | kon (fHbp m001690): 438900 ± 1790 M⁻¹ s⁻¹; Kd (fHbp mutant 0021): 0.654 nM; koff (fHbp mutant 0021): 0.000333 s⁻¹; kon (fHbp mutant 0021): 508900 ± 2640 M⁻¹ s⁻¹; Kd (fHbp mutant 0017): 4.23 nM; koff (fHbp mutant 0017): 0.00199 s⁻¹; kon (fHbp mutant 0017): 471400 ± 4100 M⁻¹ s⁻¹
2 | B2 | – | – | – | – | – | – | – | – | – | – | – | – | – | – | – | – | – | – | – | – | Kd (fHbp mutant 0021): 1.82 nM; koff (fHbp mutant 0021): 0.00084 s⁻¹; kon (fHbp mutant 0021): 460100 ± 2250 M⁻¹ s⁻¹; Kd (fHbp mutant 0017): 2.98 nM; koff (fHbp mutant 0017): 0.000964 s⁻¹; kon (fHbp mutant 0017): 324100 ± 1980 M⁻¹ s⁻¹
3 | B3 | 69.9 | 0.0158 | 227000 ± 3250 | 66.4 | 0.00858 | 129000 ± 5630 | 92.7 | 0.02257 ± 0.000177 | 244000 ± 9380 | 5.51 | 0.000453 | 82200 ± 1160 | 0.717 | 0.00022 | 307400 ± 2940 | 0.957 | 0.000266 | 278300 ± 1110 | 0.525 | 0.000185 | kon (fHbp m001690): 351700 ± 1560 M⁻¹ s⁻¹
